In patent EP2986720B1, “URICASE MUTANTS” (Council of Scientific & Industrial Research, priority 2013, dated 2014):

Key:
Assay in all cases: Enzyme kinetic study of uricase (4-AAP/phenol/HRP colour assay, 505 nm)
[1] = target: T1, Kluyveromyces lactis uricase variant KI F167W, Mutant 2 (SEQ ID NO.3) (Kluyveromyces lactis, UniProt Q6CNP7, F167W); assay type: biochemical; settings: substrate uric acid; pH 7.0, 35°C; Table 5
T1 sequence (Q6CNP7 1-308 F167W): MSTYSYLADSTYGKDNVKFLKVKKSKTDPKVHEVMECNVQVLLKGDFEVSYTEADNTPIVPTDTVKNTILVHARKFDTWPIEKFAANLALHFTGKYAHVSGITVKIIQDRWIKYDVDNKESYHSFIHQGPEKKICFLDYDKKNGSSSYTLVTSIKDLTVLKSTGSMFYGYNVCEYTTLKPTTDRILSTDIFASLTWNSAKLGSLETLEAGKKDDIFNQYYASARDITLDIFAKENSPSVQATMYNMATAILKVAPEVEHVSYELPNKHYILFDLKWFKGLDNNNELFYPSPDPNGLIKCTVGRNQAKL
Experimental: (§1) Enzymatic assay of uricase: Substrate mixture contains • a. 2.2 ml of 2 mM Uric acid • b. 0.15 ml of 60 mM 4-Aminoantipyrine (4-AAP) • c. 0.15 ml of 1.5% Phenol • d. 0.15 ml of 20 U/ml Horseradish peroxidase (HRP) • e. 0.1 M respective buffer to make up to 3 ml • a. Uricase added to the above mixture and incubated at 25°C for 20 min. The colour is measured at 505 nm (Chen, Wang et al. 2008). • b. The reaction mix was set for 300 µl rather than 3 ml for convenient measuring in BiotekPowerwave X Elisa plate reader. The amounts of the solutions added in the assay mix were calculated accordingly for 300 µl.
(§2) The kinetics of the uricases was studied to evaluate the efficiency of the enzymes. The kinetic parameters of the uricases of all the species were determined at their respective optimum pH and optimum temperatures. The substrate (uric acid) was added in increasing concentrations ranging from 10 to 600 µM (10, 20, 40, 80, 100, 200, 300, 400, 500, and 600) in triplicates. The assay reagents for the kinetic studies were added in 96 well plates in triplicates in the buffer of pH 7.0 and incubated at 35°C. Equal amounts of enzyme were added and immediately readings were taken at 505 nm. Around 30 readings were taken at the interval of 1min. The readings at a particular time point were taken for further steady state kinetic study of uricases. The KM and Vmax values were determined from Michaelis-Menten saturation curve by the non-linear curve fit (ORIGIN 7.5). kcat and kcat/KM values were also calculated (table 5). Table 5: Kinetic properties of the uricases of this invention

[2] = target: T2, Kluyveromyces lactis uricase variant KI T62S, Mutant 1 (SEQ ID NO.2) (Kluyveromyces lactis, UniProt Q6CNP7, T62S); assay type: biochemical; settings: substrate uric acid; pH 7.0, 35°C; Table 5
T2 sequence (Q6CNP7 1-308 T62S): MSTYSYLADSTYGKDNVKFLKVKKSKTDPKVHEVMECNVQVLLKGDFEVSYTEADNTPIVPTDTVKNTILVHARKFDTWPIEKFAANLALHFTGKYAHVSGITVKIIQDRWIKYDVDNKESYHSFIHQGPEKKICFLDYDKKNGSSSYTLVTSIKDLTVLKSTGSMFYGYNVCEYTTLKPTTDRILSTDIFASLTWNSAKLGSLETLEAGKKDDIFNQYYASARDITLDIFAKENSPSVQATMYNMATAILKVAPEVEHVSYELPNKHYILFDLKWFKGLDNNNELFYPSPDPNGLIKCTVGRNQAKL
Experimental: as §1, §2

[3] = target: T3, Kluyveromyces lactis uricase KlUOX (wild type) (SEQ ID NO.1) (Kluyveromyces lactis, UniProt Q6CNP7); assay type: biochemical; settings: substrate uric acid; pH 7.0, 35°C; Table 5
T3 sequence (Q6CNP7 1-308): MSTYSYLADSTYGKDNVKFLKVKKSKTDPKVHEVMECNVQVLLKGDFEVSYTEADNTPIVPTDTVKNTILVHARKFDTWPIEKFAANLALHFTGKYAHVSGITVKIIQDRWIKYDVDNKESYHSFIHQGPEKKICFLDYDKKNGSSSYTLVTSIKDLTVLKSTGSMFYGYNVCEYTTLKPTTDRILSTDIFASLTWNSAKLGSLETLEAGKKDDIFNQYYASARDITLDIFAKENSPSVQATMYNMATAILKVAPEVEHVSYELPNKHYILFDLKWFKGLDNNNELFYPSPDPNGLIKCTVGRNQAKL
Experimental: as §1, §2

[4] = system: O=c1[nH]c(=O)c2[nH]c(=O)[nH]c2[nH]1; assay type: biochemical, Aspergillus flavus; settings: other: substrate uric acid 10 to 600 µM; respective optimum pH and temperature; Table 1; pH 7.0
Experimental: as §1, §2

[5] = system: O=c1[nH]c(=O)c2[nH]c(=O)[nH]c2[nH]1; assay type: biochemical, Kluyveromyces lactis; settings: other: substrate uric acid 10 to 600 µM, pH 7.0, 35°C, Table 1
Experimental: as §1, §2

[6] = substrate: O=c1[nH]c(=O)c2[nH]c(=O)[nH]c2[nH]1; assay type: biochemical, Candida utilis; settings: other: substrate uric acid 10 to 600 µM; respective optimum pH and temperature; Table 1; pH 7.0
Experimental: as §1, §2

[7] = substrate: O=c1[nH]c(=O)c2[nH]c(=O)[nH]c2[nH]1; assay type: biochemical, A. globiformis; settings: other: substrate uric acid 10 to 600 µM; respective optimum pH and temperature; Table 1; pH 7.0
Experimental: as §1, §2

[8] = substrate: O=c1[nH]c(=O)c2[nH]c(=O)[nH]c2[nH]1; assay type: biochemical, Kluyveromyces lactis; settings: other: substrate uric acid 10 to 600 µM, pH 7.0, 35°C, Table 1; remark: listed apart in the source
Experimental: as §1, §2

Molecule: O=c1[nH]c(=O)c2[nH]c(=O)[nH]c2[nH]1 [uric acid]
- Kcat [1]: 0.242 s⁻¹
- Kcat [2]: 0.2387 s⁻¹
- Kcat [3]: 0.2027 s⁻¹

Molecule: A. flavus uricase (Aspergillus flavus)
- Km [4]: 96.2 µM
- kcat [4]: 0.0717 s⁻¹
- kcat/Km [4]: 733 M⁻¹ s⁻¹

Molecule: Kluyveromyces lactis uricase variant KI F167W, Mutant 2 (SEQ ID NO.3) (Kluyveromyces lactis NRRL Y-1140; F167W)
- Km [5]: 28.07 µM
- kcat [5]: 0.242 s⁻¹
- kcat/Km [5]: 8600 M⁻¹ s⁻¹

Molecule: Kluyveromyces lactis uricase variant KI T62S, Mutant 1 (SEQ ID NO.2) (Kluyveromyces lactis NRRL Y-1140; T62S)
- Km [5]: 16.2 µM
- kcat [5]: 0.2387 s⁻¹
- kcat/Km [5]: 14700 M⁻¹ s⁻¹

B1: C. utilis uricase (Williopsis jadinii) (protein)
chain: MSTTLSSSTYGKDNVKFLKVKKDPQNPKKQEVMEATVTCLLEGGFDTSYTEADNSSIVPTDTVKNTILVLAKTTEIWPIERFAAKLATHFVEKYSHVSGVSVKIVQDRWVKYAVDGKPHDHSFIHEGGEKRITDLYYKRSGDYKLSSAIKDLTVLKSTGSMFYGYNKCDFTTLQPTTDRILSTDVDATWVWDNKKIGSVYDIAKAADKGIFDNVYNQAREITLTTFALENSPSVQATMFNMATQILEKACSVYSVSYALPNKHYFLIDLKWKGLENDNELFYPSPHPNGLIKCTVVRKEKTKL
- Km [6]: 38.5 ± 5.16 µM
- kcat [6]: 0.2027 s⁻¹
- kcat/Km [6]: 5250 M⁻¹ s⁻¹

B2: A. globiformis uricase (Arthrobacter globiformis) (protein)
chain: MTATAETSTGTKVVLGQNQYGKAEVRLVKVTRNTARHEIQDLNVTSQLRGDFEAAHTAGDNAHVVATDTQKNTVYAFARDGFATTEEFLLRLGKHFTEGFDWVTGGRWAAQQFFWDRINDHDHAFSRNKSEVRTAVLEISGSEQAIVAGIEGLTVLKSTGSEFHGFPRDKYTTLQETTDRILATDVSARWRYNTVEVDFDAVYASVRGLLLKAFAETHSLALQQTMYEMGRAVIETHPEIDEIKMSLPNKHHFLVDLQPFGQDNPNEVFYAADRPYGLIEATIQREGSRADHPIWSNIAGFC
- Km [7]: 215 ± 2.16 µM
- kcat [7]: 0.0145 s⁻¹
- kcat/Km [7]: 67 M⁻¹ s⁻¹

B3: Kluyveromyces lactis uricase KlUOX (wild type) (SEQ ID NO.1) (Kluyveromyces lactis NRRL Y-1140) (protein)
chain: MSTYSYLADSTYGKDNVKFLKVKKSKTDPKVHEVMECNVQVLLKGDFEVSYTEADNTPIVPTDTVKNTILVHARKFDTWPIEKFAANLALHFTGKYAHVSGITVKIIQDRWIKYDVDNKESYHSFIHQGPEKKICFLDYDKKNGSSSYTLVTSIKDLTVLKSTGSMFYGYNVCEYTTLKPTTDRILSTDIFASLTWNSAKLGSLETLEAGKKDDIFNQYYASARDITLDIFAKENSPSVQATMYNMATAILKVAPEVEHVSYELPNKHYILFDLKWFKGLDNNNELFYPSPDPNGLIKCTVGRNQAKL
- Km [8]: 40.8 µM
- kcat [8]: 0.2027 s⁻¹
- kcat/Km [8]: 4830 M⁻¹ s⁻¹
